In the supplement of paper PMC9112550, “Optimization of the antimicrobial peptide Bac7 by deep mutational scanning” (BMC Biology, 2022):

System: Escherichia coli TOP10
Assay: shrunken log2 fold change of peptide-encoding DNA abundance (4.5 h post-induction vs induction); higher = less antimicrobial activity (less host growth inhibition)
Conditions: time post-induction: 4.5 h; library: site-saturation at positions 5, 18, 19, 20
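Further: peptides expressed intracellularly from a pBAD plasmid library in pooled LB shake-flask culture, induced with 0.3% L-arabinose, DNA abundance read by NGS, three biological replicates, DESeq2 with apeglm shrinkage.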

RRIRNRPPRLPRPRPRPWWRPRP
shrunken log2 fold change: -0.0647

RRIRNRPPRLPRPRPRPYACPRP
shrunken log2 fold change: -0.167

RRIRNRPPRLPRPRPRPYCDPRP
shrunken log2 fold change: -0.0156

RRIRNRPPRLPRPRPRPYCVPRP
shrunken log2 fold change: -0.172

RRIRNRPPRLPRPRPRPYDMPRP
shrunken log2 fold change: -0.00776

RRIRNRPPRLPRPRPRPYEMPRP
shrunken log2 fold change: -0.0417

RRIRNRPPRLPRPRPRPYESPRP
shrunken log2 fold change: -0.829

RRIRNRPPRLPRPRPRPYFLPRP
shrunken log2 fold change: -0.897

RRIRNRPPRLPRPRPRPYFTPRP
shrunken log2 fold change: -0.47

RRIRNRPPRLPRPRPRPYFWPRP
shrunken log2 fold change: -0.0871

RRIRNRPPRLPRPRPRPYGGPRP
shrunken log2 fold change: -0.0102

RRIRNRPPRLPRPRPRPYGPPRP
shrunken log2 fold change: -0.00663

RRIRNRPPRLPRPRPRPYHNPRP
shrunken log2 fold change: -0.275

RRIRNRPPRLPRPRPRPYIPPRP
shrunken log2 fold change: -0.36

RRIRNRPPRLPRPRPRPYKWPRP
shrunken log2 fold change: -0.233

RRIRNRPPRLPRPRPRPYMAPRP
shrunken log2 fold change: -0.0692

RRIRNRPPRLPRPRPRPYMPPRP
shrunken log2 fold change: -0.0173

RRIRNRPPRLPRPRPRPYNQPRP
shrunken log2 fold change: -0.597

RRIRNRPPRLPRPRPRPYNTPRP
shrunken log2 fold change: -1.49

RRIRNRPPRLPRPRPRPYPPPRP
shrunken log2 fold change: -0.671

RRIRNRPPRLPRPRPRPYRPPRP
shrunken log2 fold change: -0.379

RRIRNRPPRLPRPRPRPYTYPRP
shrunken log2 fold change: -0.68

RRIRNRPPRLPRPRPRPYWAPRP
shrunken log2 fold change: -0.0304

RRIRPRPPRLPRPRPRPAAGPRP
shrunken log2 fold change: 0.287

RRIRPRPPRLPRPRPRPACGPRP
shrunken log2 fold change: 0.839

RRIRPRPPRLPRPRPRPACVPRP
shrunken log2 fold change: 0.26

RRIRPRPPRLPRPRPRPADSPRP
shrunken log2 fold change: -0.0563

RRIRPRPPRLPRPRPRPAFIPRP
shrunken log2 fold change: -0.222

RRIRPRPPRLPRPRPRPAFTPRP
shrunken log2 fold change: -0.0147

RRIRPRPPRLPRPRPRPAIVPRP
shrunken log2 fold change: 0.119

RRIRPRPPRLPRPRPRPAKQPRP
shrunken log2 fold change: 0.0651

RRIRPRPPRLPRPRPRPALWPRP
shrunken log2 fold change: 0.612

RRIRPRPPRLPRPRPRPAMLPRP
shrunken log2 fold change: 0.233

RRIRPRPPRLPRPRPRPAMPPRP
shrunken log2 fold change: 0.246

RRIRPRPPRLPRPRPRPAMQPRP
shrunken log2 fold change: 0.11

RRIRPRPPRLPRPRPRPAMRPRP
shrunken log2 fold change: 0.973

RRIRPRPPRLPRPRPRPANKPRP
shrunken log2 fold change: -0.267

RRIRPRPPRLPRPRPRPANSPRP
shrunken log2 fold change: 0.00247

RRIRPRPPRLPRPRPRPAPCPRP
shrunken log2 fold change: 0.236

RRIRPRPPRLPRPRPRPAPSPRP
shrunken log2 fold change: 0.51

RRIRPRPPRLPRPRPRPAQHPRP
shrunken log2 fold change: 0.223

RRIRPRPPRLPRPRPRPASNPRP
shrunken log2 fold change: -0.231

RRIRPRPPRLPRPRPRPAVFPRP
shrunken log2 fold change: 0.373

RRIRPRPPRLPRPRPRPAVHPRP
shrunken log2 fold change: 0.0984

RRIRPRPPRLPRPRPRPAVWPRP
shrunken log2 fold change: 0.602

RRIRPRPPRLPRPRPRPAWGPRP
shrunken log2 fold change: 0.503

RRIRPRPPRLPRPRPRPAWIPRP
shrunken log2 fold change: 0.0812

RRIRPRPPRLPRPRPRPAYAPRP
shrunken log2 fold change: 0.16

RRIRPRPPRLPRPRPRPAYPPRP
shrunken log2 fold change: 0.0124

RRIRPRPPRLPRPRPRPAYYPRP
shrunken log2 fold change: -0.0697

RRIRPRPPRLPRPRPRPCCLPRP
shrunken log2 fold change: -0.439

RRIRPRPPRLPRPRPRPCDHPRP
shrunken log2 fold change: -0.128

RRIRPRPPRLPRPRPRPCDWPRP
shrunken log2 fold change: 0.0592

RRIRPRPPRLPRPRPRPCEDPRP
shrunken log2 fold change: -0.119

RRIRPRPPRLPRPRPRPCEHPRP
shrunken log2 fold change: 0.099

RRIRPRPPRLPRPRPRPCEPPRP
shrunken log2 fold change: -0.00302

RRIRPRPPRLPRPRPRPCERPRP
shrunken log2 fold change: 0.0579

RRIRPRPPRLPRPRPRPCFIPRP
shrunken log2 fold change: -0.735

RRIRPRPPRLPRPRPRPCFMPRP
shrunken log2 fold change: -0.269

RRIRPRPPRLPRPRPRPCFRPRP
shrunken log2 fold change: 0.00938

RRIRPRPPRLPRPRPRPCGHPRP
shrunken log2 fold change: -0.0439

RRIRPRPPRLPRPRPRPCHGPRP
shrunken log2 fold change: -0.0271

RRIRPRPPRLPRPRPRPCHIPRP
shrunken log2 fold change: -0.821

RRIRPRPPRLPRPRPRPCIQPRP
shrunken log2 fold change: -0.209

RRIRPRPPRLPRPRPRPCKHPRP
shrunken log2 fold change: -0.131

RRIRPRPPRLPRPRPRPCKPPRP
shrunken log2 fold change: -0.136

RRIRPRPPRLPRPRPRPCKTPRP
shrunken log2 fold change: 0.106

RRIRPRPPRLPRPRPRPCLWPRP
shrunken log2 fold change: 0.0902

RRIRPRPPRLPRPRPRPCMGPRP
shrunken log2 fold change: -0.398

RRIRPRPPRLPRPRPRPCMIPRP
shrunken log2 fold change: -0.692

RRIRPRPPRLPRPRPRPCMPPRP
shrunken log2 fold change: -0.534

RRIRPRPPRLPRPRPRPCNCPRP
shrunken log2 fold change: -0.107

RRIRPRPPRLPRPRPRPCNHPRP
shrunken log2 fold change: -0.227

RRIRPRPPRLPRPRPRPCNNPRP
shrunken log2 fold change: -0.177

RRIRPRPPRLPRPRPRPCQQPRP
shrunken log2 fold change: -0.119

RRIRPRPPRLPRPRPRPCRCPRP
shrunken log2 fold change: 0.00981

RRIRPRPPRLPRPRPRPCSDPRP
shrunken log2 fold change: -0.131

RRIRPRPPRLPRPRPRPCTGPRP
shrunken log2 fold change: -0.00227

RRIRPRPPRLPRPRPRPCVMPRP
shrunken log2 fold change: -0.162

RRIRPRPPRLPRPRPRPCVVPRP
shrunken log2 fold change: 1.73

RRIRPRPPRLPRPRPRPCWAPRP
shrunken log2 fold change: 0.21

RRIRPRPPRLPRPRPRPCWHPRP
shrunken log2 fold change: -0.261

RRIRPRPPRLPRPRPRPCWVPRP
shrunken log2 fold change: 0.143

RRIRPRPPRLPRPRPRPDCGPRP
shrunken log2 fold change: 0.093

RRIRPRPPRLPRPRPRPDEAPRP
shrunken log2 fold change: -0.152

RRIRPRPPRLPRPRPRPDFHPRP
shrunken log2 fold change: -0.26

RRIRPRPPRLPRPRPRPDGEPRP
shrunken log2 fold change: 0.0766

RRIRPRPPRLPRPRPRPDKFPRP
shrunken log2 fold change: -0.233

RRIRPRPPRLPRPRPRPDLDPRP
shrunken log2 fold change: 0.114

RRIRPRPPRLPRPRPRPDLHPRP
shrunken log2 fold change: -0.316

RRIRPRPPRLPRPRPRPDLPPRP
shrunken log2 fold change: 0.315

RRIRPRPPRLPRPRPRPDLRPRP
shrunken log2 fold change: -0.124

RRIRPRPPRLPRPRPRPDLSPRP
shrunken log2 fold change: 0.158

RRIRPRPPRLPRPRPRPDMLPRP
shrunken log2 fold change: -0.147

RRIRPRPPRLPRPRPRPDNPPRP
shrunken log2 fold change: -0.00669

RRIRPRPPRLPRPRPRPDPFPRP
shrunken log2 fold change: -0.0897

RRIRPRPPRLPRPRPRPDPNPRP
shrunken log2 fold change: -0.133

RRIRPRPPRLPRPRPRPDQAPRP
shrunken log2 fold change: -0.0505

RRIRPRPPRLPRPRPRPDQCPRP
shrunken log2 fold change: 0.139

RRIRPRPPRLPRPRPRPDQTPRP
shrunken log2 fold change: 0.0118

RRIRPRPPRLPRPRPRPDRHPRP
shrunken log2 fold change: -0.31

RRIRPRPPRLPRPRPRPDRSPRP
shrunken log2 fold change: -0.1

RRIRPRPPRLPRPRPRPDRTPRP
shrunken log2 fold change: -0.25

RRIRPRPPRLPRPRPRPDSCPRP
shrunken log2 fold change: 0.0412

RRIRPRPPRLPRPRPRPDSEPRP
shrunken log2 fold change: -0.208

RRIRPRPPRLPRPRPRPDSGPRP
shrunken log2 fold change: 0.0463

RRIRPRPPRLPRPRPRPDTEPRP
shrunken log2 fold change: -0.48

RRIRPRPPRLPRPRPRPDVVPRP
shrunken log2 fold change: -0.00973

RRIRPRPPRLPRPRPRPDYSPRP
shrunken log2 fold change: -0.815
